Measured values: patent US11193150B2, “Nepetalactol oxidoreductases, nepetalactol synthases, and microbes capable of producing nepetalactone” (Zymergen Inc., priority 2017, dated 2021)

Legend:
nepetalactol [1] = assay: In vitro conversion of nepetalactol to nepetalactone by candidate NORs in clarified cell lysate with NAD+ or NADP+ (GC-MS); type: biochemical; conditions: clarified lysate of E. coli BL21 (DE3) expressing the candidate, 30° C., 2 hours
Experimental: BL21 (DE3) strains were streaked out on LB plates containing kanamycin from glycerol stock and grown overnight at 37° C. A single colony was inoculated into 4 mL of LB medium containing kanamycin in 15 mL disposable culture tubes and incubated overnight at 30° C. with shaking at 250 rpm. 500 μL of the overnight culture was subcultured into 50 mL of LB medium containing kanamycin in a 250 mL baffled flask. The culture was grown at 37° C. and the optical density at 600 nm (OD600) was monitored. When OD600 reached between 0.6-1, the cultures were cooled on ice for 15 minutes. The cultures were then induced with 100 μM of isopropyl β-D-1-thiogalactopyranoside and incubated at 15° C. with shaking at 250 rpm for roughly 20 hours. Cultures were pelleted by centrifugation in 50 mL centrifuge tubes. The supernatant was decanted and the pellets were frozen at −20° C. for later processing.
Pellets were thawed on ice and resuspended with 3 mL of cold lysis buffer: 50 mM sodium phosphate, pH=7.4, 100 mM sodium chloride. All remaining steps were performed either on ice or at 4° C. The cell mixture was transferred to a 15 mL centrifuge tube and disrupted with three rounds of sonication using the Branson Sonifier 450 with a double-level microtip at 70% amplitude. A single round of sonication consisted of 6 cycles of 10 seconds with the sonicator on, and 10 seconds off. Between each round, the cell mixture was allowed to sit on ice for a minute to cool. The lysed cell mixture was transferred to 1.7 mL centrifuge tubes and centrifuged at maximum speed in a microcentrifuge for 20 minutes. The supernatant (clarified cell lysate) was collected in a separate tube and used for in vitro characterization.
The in vitro reactions were setup as follows: 2 μL of 100 mM NAD+ or NADP+ and 10 μL of 100 uM nepetalactol was added to 188 μL of the clarified cell lysate. The reactions were incubated at 30° C. shaking at 200 rpm for 2 hours. […] The organic layer was withdrawn and analyzed with gas chromatography coupled to mass spectrometry (GC-MS). […]

nepetalactol [2] = assay: Production of nepetalactone from nepetalactol in Saccharomyces cerevisiae strains expressing NOR candidates from 2μ plasmid pESC-URA; type: cell-based; conditions: 2% galactose, 100 mg/L of nepetalactol fed, 30° C., 24 hours
Experimental: 300 μL of ethyl acetate was added to the cultures. The plates were sealed with a PlateLoc Thermal Microplate Sealer and the plates were shaken for one min at 750 rpm. The plates were centrifuged and the ethyl acetate layer was collected and analyzed by liquid chromatography coupled to mass spectrometry (LC-MS). Target analytes were quantified against authentic standards.
The plasmids were individually transformed into chemically competent Saccharomyces cerevisiae cells as described in EXAMPLE 2. Transformants were selected on SD-URA agar plates. Three to four replicates were picked into SD-URA liquid medium and cultured at 30° C. for one to two days with shaking at 1000 rpm. Cultures were glycerol stocked at a final concentration of 16.6% glycerol and stored at −80° C. until later use.
10 μL of the glycerol stocked strains was inoculated into 300 μL of minimal media lacking uracil, and containing 4% glucose in 96-well plates to produce seed cultures. The plates were incubated at 30° C. at 1000 rpm for 1-2 days. 10 μL of the seed cultures was then inoculated into 300 μL of minimal media lacking uracil, and containing 2% galactose and 100 mg/L of nepetalactol. 30 μL of methyl oleate was next added to the wells. The main culture plates were further incubated at 30° C., 1000 rpm for 24 hours before assays were performed to assess cell growth and titer. […]

B1: NcatNOR15: candidate nepetalactol oxidoreductase (NOR) from Nepeta cataria, protein SEQ ID NO: 561 (protein, listed as Nepeta cataria)
chain: MAKTPETEHPVKAFGYAATDNSGTFSPFKFSRRATGERDVQFKVLYCGVCHSDLHMVKNEWGVTHYPIVPGHEIVGVATEVGSKVEKVKVGDKVGVGVIVGSCRQCDQCSNDLENYCSKQILTYGAPYLDGTITRGGYSDIMVADEHFIIRWPENFPLDAGAPLLCAGITTYSPLRYFGLDKPGLRVGVNGLGGLGHVAVKFAKAFGTKVTVISSSLRKKKEAVEKLGVDEFLVSTDPEQMQAAIGTLDGIIDTVSAEHSVVSLLSLLKPHGRLIVVGAPEKPHQLPAFPLITGRKSISGSAIGGMKETQEMIDFAAKHNILPDVEVIPIDYINTAMERLLKSDVKYRFVIDVEKSLKA
Nepetalactol [1]
  oxidation of nepetalactol to nepetalactone: can oxidize nepetalactol to nepetalactone

B2: NcatNOR21: candidate nepetalactol oxidoreductase (NOR) from Nepeta cataria, protein SEQ ID NO: 566 (protein, listed as Nepeta cataria)
chain: MAKSVNAVGWAARDTSGLLSPLKFARPAAGDRDVQFKVLYCGICHSDLHSIKNEWGNTQYPIVPGHEIVGVVTAVGPKATKFKAGDKVGVGCLVNSCRHCDQCAADLENYCPQLVQTYNSVLADGSVTYGGYSDVMTADEDFVIRWPENFPMDKGAPLLCAGVTTYSPLRYYGLDKPGLHIGVVGLGGLGHVAVKFAKAFGMKVTVISTSAGKKKEAIETLGADAFLISRDASEMQAAAGTLDGMIDTVSAQHPLPPLLSLLKPHGKLILVGAPEKPFELPAFPLLMGRKTVAGSVIGGLKETQEMIDFAAKHNLLPEVEMIPMDYVNTAMERLAKADVKYRFVIDVGNTLTKAD
Nepetalactol [1]
  oxidation of nepetalactol to nepetalactone: can oxidize nepetalactol to nepetalactone

B3: NcatNOR34: candidate nepetalactol oxidoreductase (NOR) from Nepeta cataria, protein SEQ ID NO: 578 (protein, listed as Nepeta cataria)
chain: MAFCRSSLLLRKALGGSRRAAAAATCSSAYACGWQSERGRWYSGGEGTTISAPGYHVNTAPSHMTGAVFWDKDKPITYEEFEMPRPKANEVLIKTKACGACHSDLHVIKGDLKFPCPCILGHEITGEVVEHGPLTETKYIERYPVGSKVIGAFIMPCGSCFYCSRGEDDLCEPYFAYNRAKGTLYDGQTRLFLRGSGKPVHMWSMSGLAEYCVTPVNGLGALPDTLPYAESSVLGCAVFTAYGAIAHAAEVKPGNSVAVIGIGGVGSSCLQIAKAFGASEIIAVDVEDGKLETAKTFGATHIINSRKEDAIAKIKELTDGRGVDIAVEAIGGPKTFAQCVGSVRAGGKAVMIGLSPTGGKGEVEITQLVRRKVKVIGSYGGRAMTDLPKLVELAEQGTFNLEAAVTRRYKFEEVAQAYQDLQNKTIVGRGVIEIM
Nepetalactol [1]
  oxidation of nepetalactol to nepetalactone: can oxidize nepetalactol to nepetalactone

B4: GAR_NOR15: NOR candidate codon-optimized for S. cerevisiae (SEQ ID NO: 1393), expressed from pESC-URA (protein, listed as Nepeta cataria)
chain: MADKEGEVVCVTGGSGFIGSWLVSLLLRRGYSVRATVKNLGDERETKHLEAIEGADSRLSLFQIDLLDYDSVATAVGDAAGVFHLASPCTIDQVNDPQRELLDPAIKGTLNVLKAAKNLGVRRVVVTSSISAMIASSNSLAETGEDCWIDEDYCRQNGLWYPVSKALAEKAAWKLAEENGLDIVVVNPGMVVGPILPPALNSSMQLMLHVLQGKDFFEGFFMGLVHVKDVALAQILLYENTSASGRHLCVESLSRYDDFAKQMEKLYPEYKLPRFSNNAQHGSLKSDAALKKLRDLGIEFAPLEQIVKDSIESLRSKGYIS
Nepetalactol [2]
  nepetalactone produced (titer): 93 mg/L
